Here are results for one molecule from patent publication US20120178682A1 (published 2012).

Bridge positions count the residues as written; N and C are the ends. Ends that are not written are not given here.

Assay [1] concerns the target VEGF (form and enantiomer not stated at paragraph 530). Nature of the assay: Octet-SPR, preliminary estimate, reference RFX001.
Assay [2] shares this target. Kind of assay: standard SPR, preliminary estimate, reference RFX001.

VEGF (form and enantiomer not stated at paragraph 530), sequence (P15692 whole entry): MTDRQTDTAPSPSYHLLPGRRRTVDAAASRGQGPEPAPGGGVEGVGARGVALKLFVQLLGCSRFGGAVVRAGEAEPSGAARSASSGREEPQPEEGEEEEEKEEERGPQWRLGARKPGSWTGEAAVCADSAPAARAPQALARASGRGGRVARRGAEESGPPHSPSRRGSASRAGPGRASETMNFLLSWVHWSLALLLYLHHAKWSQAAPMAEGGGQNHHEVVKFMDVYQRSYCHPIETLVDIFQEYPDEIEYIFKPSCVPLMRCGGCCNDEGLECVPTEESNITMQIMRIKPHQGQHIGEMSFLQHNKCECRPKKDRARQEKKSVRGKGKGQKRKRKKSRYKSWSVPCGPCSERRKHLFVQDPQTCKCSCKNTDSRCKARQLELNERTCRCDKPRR

B1: RFX002 (enantiomer and preparation not stated at paragraph 530) (designed binder)
chain: TYKMILNGKTLKSECTTEAVDLFDAFDVLFVCAASNFSFIDDWTYDDATKTFTVTE
modifications: disulfide 15-32 (inferred); also: enantiomer (L- or D-form) not given here
As to B1, the “fold increase of binding affinity against RFX001” value in assay [1] is ~5 fold; in assay [2], ~2 fold.
